B2: Hyper IL-11 (fusion protein of shIL-11R and hIL-11), Twin-Strep-tagged (other)
chain: SSPCPQAWGPPGVQYGQPGRSVKLCCPGVTAGDPVSWFRDGEPKLLQGPDSGLGHELVLAQADSTDEGTYICQTLDGALGGTVTLQLGYPPARPVVSCQAADYENFSCTWSPSQISGLPTRYLTSYRKKTVLGADSQRRSPSTGPWPCPQDPLGAARCVVHGAEFWSQYRINVTEVNPLGASTRLLDVSLQSILRPDPPQGLRVESVPGYPRRLRASWTYPASWPCQPHFLLKFRLQYRPAQHPAWSTVEPAGLEEVITDAVAGLPHAVRVSARDFLDAGTWSTWSPEAWGTPSTGGGSGGGSPGPPPGPPRVSPDPRAELDSTVLLTRSLLADTRQLAAQLRDKFPADGDHNLDSLPTLAMSAGALGALQLPGVLTRLRADLLSYLRHVQWLRRAGGSSLKTLEPELGTLQARLDRLLRRLQLLMSRLALPQPPPDPPAPPLAPPSSAWGGIRAAHAILGGLHLTLDWAVRGLLLLKTRL
B3: sgp130Fc (fusion protein of soluble hgp130 to the Fc-part of an IgG antibody) (Fc fusion, human, UniProt P40189 23-619, looked up)
chain: ELLDPCGYISPESPVVQLHSNFTAVCVLKEKCMDYFHVNANYIVWKTNHFTIPKEQYTIINRTASSVTFTDIASLNIQLTCNILTFGQLEQNVYGITIISGLPPEKPKNLSCIVNEGKKMRCEWDGGRETHLETNFTLKSEWATHKFADCKAKRDTPTSCTVDYSTVYFVNIEVWVEAENALGKVTSDHINFDPVYKVKPNPPHNLSVINSEELSSILKLTWTNPSIKSVIILKYNIQYRTKDASTWSQIPPEDTASTRSSFTVQDLKPFTEYVFRIRCMKEDGKGYWSDWSEEASGITYEDRPSKAPSFWYKIDPSHTQGYRTVQLVWKTLPPFEANGKILDYEVTLTRWKSHLQNYTVNATKLTVNLTNDRYLATLTVRNLVGKSDAAVLTIPACDFQATHPVMDLKAFPKDNMLWVEWTTPRESVKKYILEWCVLSDKAPCITDWQQEDGTVHRTYLRGNLAESKCYLITVTPVYADGPGSPESIKAYLKQAPPSKGPTVRTKKVGKNEAVLEWDQLPVDVQNGFIRNYTIFYRTIIGNETAVNVDSSHTEYTLSSLTSDTLYMVRMAAYTDEGGKDGPEFTFTTPKFAQGEIE

Assays:
[1] = biological target: T1, recombinant his-tagged soluble human IL-11R (human, UniProt Q14626 24-370); assay: cell-based or functional assay
T1 sequence (looked up): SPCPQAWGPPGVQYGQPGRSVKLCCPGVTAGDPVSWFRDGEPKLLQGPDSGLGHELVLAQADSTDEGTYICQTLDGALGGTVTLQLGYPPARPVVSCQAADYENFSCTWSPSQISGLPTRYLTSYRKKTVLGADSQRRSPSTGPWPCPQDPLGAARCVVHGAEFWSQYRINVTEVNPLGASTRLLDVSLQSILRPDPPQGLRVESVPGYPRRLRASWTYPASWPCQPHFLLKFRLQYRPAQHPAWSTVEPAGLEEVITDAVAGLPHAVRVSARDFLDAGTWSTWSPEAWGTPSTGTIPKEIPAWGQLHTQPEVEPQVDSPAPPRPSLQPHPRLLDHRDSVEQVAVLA

[2] = biological target: T2, recombinant his-tagged soluble human IL-6R (human, UniProt P08887 20-365); assay: SPR; Biacore X100, multi-cycle, NTA sensor chip; his-tagged soluble hIL-6R or hIL-11R immobilised (100-250 RU per cycle); cytokines injected 133.33 to 0.183 nM, 30 uL/min, 180 s, dissociation 800 s; 25 °C, PBS with 0.05% P20 and 50 uM EDTA; two-state reaction fit; design: ka1 (two-state fit, first step) / ka2 (two-state fit, second step): unit not given here; conditions: both partners purified
T2 construct: soluble human IL-6 α-receptor; In functional rows this id also stands for hIL-6R expressed on Ba/F3 cells (whole receptor); the readout says so; also called sIL-6R; shIL-6R; source: bought: R&D Systems (cat. no. 10537)
T2 sequence (looked up): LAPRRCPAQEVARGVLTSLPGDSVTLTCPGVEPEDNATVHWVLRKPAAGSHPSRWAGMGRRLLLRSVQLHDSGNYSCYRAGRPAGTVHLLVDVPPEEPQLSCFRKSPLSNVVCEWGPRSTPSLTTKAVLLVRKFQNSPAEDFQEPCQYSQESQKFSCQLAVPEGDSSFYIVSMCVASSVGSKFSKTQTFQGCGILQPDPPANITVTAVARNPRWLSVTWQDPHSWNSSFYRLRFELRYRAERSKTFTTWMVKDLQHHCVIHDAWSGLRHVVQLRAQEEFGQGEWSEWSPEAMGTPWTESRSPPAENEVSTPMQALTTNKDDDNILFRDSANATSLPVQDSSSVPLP

[3] = biological target: T1, recombinant his-tagged soluble human …; assay: as above; design: ka1 (two-state fit, first step) / ka2 (two-state fit, second step): unit not given here; conditions: both partners purified
[4] = biological target: B3; assay: cell-based or functional assay
[5] = biological target: B3; assay: SPR; Biacore X100, Protein A sensor chip; sgp130Fc captured via its Fc (200-300 RU per cycle); hyper-cytokines injected 30 uL/min, 120 s, dissociation 300 s (200-0.20 nM cHIL-6, 25-0.05 nM HIL-6, 50-0.62 nM HIL-11); 1:1 binding model; conditions: both partners purified
[6] = biological target: Hyper IL-6 (fusion protein of human sIL-6R and human IL-6), Twin-Strep-tagged (human); assay: cell-based or functional assay
[7] = biological target: B2; assay: cell-based or functional assay
[8] = biological target: chimeric Hyper-cytokine IL-6/sIL-11R (cHIL-6), Twin-Strep-tagged (human, UniProt Q14626 23-317); assay: cell-based or functional assay

B1: Twin-strep-tagged human IL-11 (ligand, UniProt P20809 22-199, looked up)
chain: PGPPPGPPRVSPDPRAELDSTVLLTRSLLADTRQLAAQLRDKFPADGDHNLDSLPTLAMSAGALGALQLPGVLTRLRADLLSYLRHVQWLRRAGGSSLKTLEPELGTLQARLDRLLRRLQLLMSRLALPQPPPDPPAPPLAPPSSAWGGIRAAHAILGGLHLTLDWAVRGLLLLKTRL
notes: human interleukin 11 (IL-11); A His-tagged hIL-11 from E. coli (hIL-11his) was used only in some Western blots of signalling, not in SPR; also called hIL-11ts; hIL-11
In the case of B1, the “EC50 of proliferation of Ba/F3-hgp130-hIL-11R cells (hIL-11R on cells), 72 h” value [1] is reported as 0.0216 nM, the Kd [2] is reported as 58.4 nM and the “ka1 (two-state fit, first step)” value [2] is reported as 164000. For the same binder, the “ka2 (two-state fit, second step)” value [2] was 0.0112, the “kd1 (two-state fit, first step)” value [2] was 0.0925 s⁻¹ and the “kd2 (two-state fit, second step)” value [2] was 0.00129 s⁻¹. The Kd [3] was 0.53 nM, the “ka1 (two-state fit, first step)” value [3] was 2.3e+06 and the “ka2 (two-state fit, second step)” value [3] was 0.00454. The “kd1 (two-state fit, first step)” value [3] was 0.00692 s⁻¹ and the “kd2 (two-state fit, second step)” value [3] was 0.000972 s⁻¹.

With B2 the “EC50 of proliferation of Ba/F3-hgp130 cells (hgp130 on cells), 72 h” value [4] was 0.0578 nM, the Kd [5] was 0.397 nM and the koff [5] was 0.000142 s⁻¹. The kon [5] was 360000 M⁻¹ s⁻¹.

With B3 the “IC50 of sgp130Fc on growth of Ba/F3-gp130 cells induced by 1.7 nM HIL-6 (blocks HIL-6 with gp130 on cells)” value [6] was 0.428 nM, the “IC50 of sgp130Fc on growth of Ba/F3-gp130 cells induced by 1.7 nM HIL-11 (blocks HIL-11 with gp130 on cells)” value [7] was 0.213 nM and the “IC50 of sgp130Fc on growth of Ba/F3-gp130 cells induced by 1.7 nM cHIL-6 (blocks cHIL-6 with gp130 on cells)” value [8] was 0.324 nM.

From publication PMC11796321, “Interleukin‐11 receptor is an alternative α‐receptor for interleukin‐6 and the chimeric cytokine IC7” (The Febs Journal, 2024)
